The values that follow come from PMC8718839 (iScience, 2021).

The data set “crystal structure” deals with the molecule itself. Description: crystal structure.
Another data set concerns the target T1, (ActRIIB)2-Fc (UniProt Q13705-1 19-137).
T1 sequence: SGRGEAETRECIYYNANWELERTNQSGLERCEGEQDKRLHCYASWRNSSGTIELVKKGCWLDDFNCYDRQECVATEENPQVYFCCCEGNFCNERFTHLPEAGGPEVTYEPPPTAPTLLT
Description: SPR. A general note: In SPR one partner is held on a chip, and binding of the other changes the refractive index at the surface.

The target of the next data set is T2, ActRIIB-Alk4-Fc (human, UniProt Q13705;P36896).
T2 sequence 1: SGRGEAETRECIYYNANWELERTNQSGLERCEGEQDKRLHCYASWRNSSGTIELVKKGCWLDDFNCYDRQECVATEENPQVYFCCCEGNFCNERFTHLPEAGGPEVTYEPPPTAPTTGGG
T2 sequence 2: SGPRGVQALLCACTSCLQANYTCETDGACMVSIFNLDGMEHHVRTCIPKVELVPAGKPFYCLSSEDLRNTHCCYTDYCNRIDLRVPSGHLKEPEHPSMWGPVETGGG
Put plainly: SPR.

The target of a further data set is T3, ActRIIB-Fc (UniProt Q13705 19-137).
T3 sequence: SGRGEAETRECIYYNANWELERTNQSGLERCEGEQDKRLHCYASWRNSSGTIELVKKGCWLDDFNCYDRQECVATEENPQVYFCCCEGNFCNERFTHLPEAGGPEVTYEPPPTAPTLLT
Description: SPR.

B1: GDF11 mature (ligand)
chain: NLGLDCDEHSSESRCCRYPLTVDFEAFGWDWIIAPKRYKANYCSGQCEYMFMQKYPHTHLVQQANPRGSAGPCCTPTKMSPINMLYFNDKQQIIYGKIPGMVVDRCGCS
What is called Kd is the equilibrium constant for the complex coming apart. High values mean weaker binding, low ones tighter binding. For the molecule B1, the binding result in the data set “crystal structure” is given as “binds”. Besides, the results for the Kd with (ActRIIB)2-Fc, with ActRIIB-Alk4-Fc and with ActRIIB-Fc were 0.00191 nM, 0.00424 nM and 0.0147 nM, respectively.

B2: Activin A mature (ligand)
chain: GLECDGKVNICCKKQFFVSFKDIGWNDWIIAPSGYHANYCEGECPSHIAGTSGSSLSFHSTVINHYRMRGHSPFANLKSCCVPTKLRPMSMLYYDDGQNIIKKDIQNMIVEECGCS
As to B2, the binding result in “crystal structure” is “binds”. Also, the dissociation constant Kd in the data set with (ActRIIB)2-Fc came out at 0.0125 nM; with ActRIIB-Alk4-Fc, 0.0304 nM; in the data set with ActRIIB-Fc, 0.108 nM.
